From US20020016443A1, “Antiproliferative factor” (priority 1996, published 2002)

Test system: APF activity on primary normal bladder epithelial cells
Experiment: Blocking of APF antiproliferative activity by recombinant growth factors (^3H-thymidine incorporation)
Type: cell-based, human
Procedure: ^3H-Thymidine Incorporation. Primary normal adult human bladder epithelial cells (HBE) were grown from biopsies obtained at autopsy from patients who had no history of bladder disorder. HBE cells were plated at a density of 1×10^4 cells/well onto 96 well tissue culture plates and incubated at 37° C. overnight (resulting in approximately 60% confluence the following day). The medium was then changed to MEM containing only 1% glutamine and 1% antibiotic/ antimycotic solution, and the cells were incubated at 37° C. overnight. […] Cells were then trypsinized, and insoluble cell contents harvested and methanol-fixed onto glass fiber filter paper, as previously described^62; the amount of radioactivity incorporated was determined as counts per minute using a Beckman LS 3801 scintillation counter. […]
To determine whether the antiproliferative effect of the APF on bladder epithelial cells might be due to a decrease in HB-EGF production, primary normal bladder epithelial cells were simultaneously incubated with varying levels of recombinant HB-EGF, EGF, or IGF1 and low molecular weight urine fractions from IC patients. […] This effect was evident using a concentration of HB-EGF (10 ng/ml) in the range previously determined for normal controls (2-22 ng/ml, mean 6.33 ng/ml) 12 as well as higher concentrations (30 and 100 ng/ml). […]

B1: heparin-binding epidermal growth factor-like growth factor (protein, UniProt Q99075 63-148, looked up)
Heparin-binding EGF-like …: DLQEADLDLLRVTLSSKPQALATPNKEEHGKRKKKGKGLGKKRDPCLRKYKDFCIHGECKYVKELRAPSCICHPGYHGERCHGLSL
10 ng purified APF, 30 ng/ml of HB-EGF, normal and IC patient cells
  inhibition of antiproliferative activity of HPLC-purified APF: inhibited for 2 of 3 APF specimens
co-incubation with low molecular weight IC urine fractions, HB-EGF 10, 30 and 100 ng/ml, EGF, IGF1 up to about 12 and 25 fold normal levels
  inhibition of IC urine antiproliferative activity by recombinant growth factor: inhibited by HB-EGF in a dose-dependent manner
